Results taken from patent publication US20110318339A1 (FABRUS, published 2011).
Numbering of substitutions follows the chain as printed. Names may count otherwise.

B1: Fab VH1-46_IGHD6-6*01_IGHJ1*01 S102A/S103P/S104F/H111F I51A/N52L/S54T/G56H & L6_IGKJ1*01 S28N/S30D/S31H (Fab, V domains shown)
VH: QVQLVQSGAEVKKPGASVKVSCKASGYTFTSYYMHWVRQAPGQGLEWMGIALPTGHSTSYAQKFQGRVTMTRDTSTSTVYMELSSLRSEDTAVYYCAREEYAPFSAEYFQFWGQGTLVTVSS
VL: EIVLTQSPATLSLSPGERATLSCRASQNVDHYLAWYQQKPGQAPRLLIYDASNRATGIPARFSGSGSGTDFTLTISSLEPEDFAVYYCQQRSNWPPWTFGQGTKVEIKR
notes: Fab made in E. coli: VH on CH1 with His6 and Flag tags (Plasmid A), VL on kappa CL (Plasmid C); also called H: APFF ALTH & L: NDH
B2: Fab VH1-46_IGHD6-6*01_IGHJ1*01 S102A/S103P/S104F/H111F I51A/N52L/S54T/G56H & L6_IGKJ1*01 S28N/S30D/S31H S52L/A55S (Fab, V domains shown)
VH: B1 VH
VL: B1 VL with S52L, A55S
notes: Fab made in E. coli: VH on CH1 with His6 and Flag tags (Plasmid A), VL on kappa CL (Plasmid C); also called H: APFF ALTH & L: NDH LS
B3: Fab VH1-46_IGHD6-6*01_IGHJ1*01 S102A/S103P/S104F/H111F I51A/N52L/S54T/G56H & L6_IGKJ1*01 S28N/S30D/S31H S52L/A55G (Fab, V domains shown)
VH: B1 VH
VL: B1 VL with S52L, A55G
notes: Fab made in E. coli: VH on CH1 with His6 and Flag tags (Plasmid A), VL on kappa CL (Plasmid C); also called H: APFF ALTH & L: NDH LG
B4: Fab VH1-46_IGHD6-6*01_IGHJ1*01 S102A/S103P/S104F/H111F N52L/S54T/G56H & L6_IGKJ1*01 S28N/S30D/S31H (Fab, V domains shown)
VH: B1 VH with A51I
VL: B1 VL
notes: Fab made in E. coli: VH on CH1 with His6 and Flag tags (Plasmid A), VL on kappa CL (Plasmid C); also called H: APFF LTH & L: NDH
B5: Fab VH1-46_IGHD6-6*01_IGHJ1*01 S102A/S103P/S104F/H111F N52L/S54T/G56H & L6_IGKJ1*01 S28N/S30D/S31H S52L/A55S (Fab, V domains shown)
VH: B1 VH with A51I
VL: B1 VL with S52L, A55S
notes: Fab made in E. coli: VH on CH1 with His6 and Flag tags (Plasmid A), VL on kappa CL (Plasmid C); also called H: APFF LTH & L: NDH LS
B6: Fab VH1-46_IGHD6-6*01_IGHJ1*01 S102A/S103P/S104F/H111F N52L/S54T/G56H & L6_IGKJ1*01 S28N/S30D/S31H S52L/A55G (Fab, V domains shown)
VH: B1 VH with A51I
VL: B1 VL with S52L, A55G
notes: Fab made in E. coli: VH on CH1 with His6 and Flag tags (Plasmid A), VL on kappa CL (Plasmid C); also called H: APFF LTH & L: NDH LG
B7: Fab VH5-51_IGHD5-18*01>3_IGHJ4*01 G100K/G104T & V3-4_IGLJ1*01 M94R/S96M (Fab, V domains shown)
VH: EVQLVQSGAEVKKPGESLKISCKGSGYSFTSYWIGWVRQMPGKGLEWMGIIYPGDSDTRYSPSFQGQVTISADKSISTAYLQWSSLKASDTAMYYCARRKYSYTYDYFDYWGQGTLVTVSS
VL: QTVVTQEPSFSVSPGGTVTLTCGLSSGSVSTSYYPSWYQQTPGQAPRTLIYSTNTRSSGVPDRFSGSILGNKAALTITGAQADDESDYYCVLYRGMGISYVFGTGTKVTVL
notes: Fab made in E. coli: VH on CH1 with His6 and Flag tags (Plasmid A), VL on lambda CL (Plasmid E); also called H: KT & L: RM
B8: Fab VH5-51_IGHD5-18*01>3_IGHJ4*01 G100K/G104T G24A/S28R/G35V & V3-4_IGLJ1*01 (Fab, V domains shown)
VH: B7 VH with G24A, S28R, G35V
VL: B7 VL with R94M, M96S
notes: Fab made in E. coli: VH on CH1 with His6 and Flag tags (Plasmid A), VL on lambda CL (Plasmid E); also called H: KT ARV & L: wt
B9: Fab VH5-51_IGHD5-18*01>3_IGHJ4*01 G100K/G104T G24L/S28R/G35V & V3-4_IGLJ1*01 (Fab, V domains shown)
VH: B7 VH with G24L, S28R, G35V
VL: B7 VL with R94M, M96S
notes: Fab made in E. coli: VH on CH1 with His6 and Flag tags (Plasmid A), VL on lambda CL (Plasmid E); also called H: KT LRV & L: wt

biological target: T1, recombinant human DLL4 (Cat# 1506-D4/CF, R&D Systems) (human, UniProt Q9NR61 27-529); test: ELISA, DLL4 coated, Fab 20 nM
T1 construct: Bought protein; also called hDLL4; rHuman DLL4
Experimental: (§1) The plate was blocked by adding 1% BSA in Tris-buffered Saline Tween (TBST) and incubating for 1 hour at room temperature followed by washing 2 times with 150 μl TBST. A Fab antibody was serially diluted in 1% BSA in PBS. A 50 μl aliquot of each serial dilution was added, in triplicate, to each well and the plate was incubated for 1 hour at room temperature followed by washing 2 times with TBST. 50 μl of either goat anti-human kappa HRP conjugated secondary antibody (Cat # A7164-1 mL, Sigma-Aldrich) or goat anti-human lambda HRP conjugated secondary antibody (Cat # L1645-1 ml, Sigma-Aldrich), diluted 1:1000 in 1% BSA in PBS, was added to each well and the plate was incubated for 30 minutes at room temperature followed by washing 3 times with 200 μl TBST. Finally, 50 μl TMB one-component reagent (Cat # TMBW-1000-01, BioFax) was added and allowed to develop for 2 minutes at room temperature. The reaction was immediately halted by the addition of 50 μl 0.5M H₂SO₄ and the absorbance at 450 nm was measured using an ELISA plate reader.

Row | Binder | ELISA absorbance at 450 nm
1 | B1 | 0.391 A450
2 | B2 | 0.458 A450
3 | B3 | 0.39 A450
4 | B4 | 0.863 A450
5 | B5 | 1.05 A450
6 | B6 | 1.01 A450
7 | B7 | 0.087 A450
8 | B8 | 0.054 A450
9 | B9 | 0.027 A450

biological target: T1, recombinant human DLL4 (Cat# …); test: ELISA, DLL4 coated, Fab 0.74 nM
Experimental: as §1

Row | Binder | ELISA absorbance at 450 nm
10 | B1 | 0.024 A450
11 | B2 | 0.046 A450
12 | B3 | 0.028 A450
13 | B4 | 0.27 A450
14 | B5 | 0.398 A450
15 | B6 | 0.368 A450
16 | B7 | 0 A450
17 | B8 | 0.008 A450
18 | B9 | 0.006 A450

biological target: T1, recombinant human DLL4 (Cat# …); test: ELISA, DLL4 coated, Fab 6.67 nM
Experimental: as §1

Row | Binder | ELISA absorbance at 450 nm
19 | B1 | 0.232 A450
20 | B2 | 0.282 A450
21 | B3 | 0.212 A450
22 | B4 | 0.739 A450
23 | B5 | 0.916 A450
24 | B6 | 0.88 A450
25 | B7 | 0.023 A450
26 | B8 | 0.025 A450
27 | B9 | 0.005 A450

biological target: T1, recombinant human DLL4 (Cat# …); test: ELISA, DLL4 coated, Fab 2.22 nM
Experimental: as §1

Row | Binder | ELISA absorbance at 450 nm
28 | B1 | 0.069 A450
29 | B2 | 0.04 A450
30 | B3 | 0.069 A450
31 | B4 | 0.463 A450
32 | B5 | 0.557 A450
33 | B6 | 0.594 A450
34 | B7 | 0.007 A450
35 | B8 | 0.002 A450
36 | B9 | 0 A450
